Results on 19 molecules are retold here after patent publication US20240116985A1 (published 2024).

T1: full-length beta-Catenin (Uniprot ID P35222) (Homo sapiens (Human), UniProt P35222 2-781)
T1 construct: Used full-length in both the FP and the AlphaScreen assay; also called B-Catenin; bCat
T1 sequence: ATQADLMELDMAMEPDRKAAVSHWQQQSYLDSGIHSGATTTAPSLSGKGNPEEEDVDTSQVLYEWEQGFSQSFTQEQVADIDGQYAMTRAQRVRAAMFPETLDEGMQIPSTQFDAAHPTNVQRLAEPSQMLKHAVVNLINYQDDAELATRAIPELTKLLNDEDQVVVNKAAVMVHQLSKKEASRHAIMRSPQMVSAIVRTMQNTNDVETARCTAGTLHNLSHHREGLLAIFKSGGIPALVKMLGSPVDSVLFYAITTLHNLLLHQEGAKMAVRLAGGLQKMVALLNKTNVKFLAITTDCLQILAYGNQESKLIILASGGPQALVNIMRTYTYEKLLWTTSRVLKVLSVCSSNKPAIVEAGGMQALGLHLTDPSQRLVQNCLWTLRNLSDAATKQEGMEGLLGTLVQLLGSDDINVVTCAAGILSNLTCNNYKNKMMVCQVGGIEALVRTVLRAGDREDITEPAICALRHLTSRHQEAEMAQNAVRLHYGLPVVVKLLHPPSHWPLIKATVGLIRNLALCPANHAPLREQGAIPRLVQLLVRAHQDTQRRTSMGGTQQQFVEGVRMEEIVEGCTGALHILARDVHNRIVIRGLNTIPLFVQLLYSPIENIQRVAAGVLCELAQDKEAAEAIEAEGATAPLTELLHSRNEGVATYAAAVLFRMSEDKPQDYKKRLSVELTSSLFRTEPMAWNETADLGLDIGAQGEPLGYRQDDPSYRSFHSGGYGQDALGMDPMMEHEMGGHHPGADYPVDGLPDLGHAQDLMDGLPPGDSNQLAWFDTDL

B1: I-47 (peptide)
peptide: Ac-FD[R8]ADDAAF[S5]AFWQ-NH2
modifications: staple 3-10; also: staple isomer composition: earlier-eluting HPLC peak
notes: Stapled peptide; also called Ac-Phe-Asp-R8-Ala-Asp-Asp-Ala-Ala-Phe-S5-Ala-Phe-Trp-Gln-NH2
B2: I-71 (peptide)
peptide: Ac-ADI[RdN″]D[hLeu]AAFQ[S7]FWH-NH2
modifications: staple 4-11
notes: Stapled peptide; also called Ac-Ala-Asp-Ile-RdN-Asp-hLeu-Ala-Ala-Phe-Gln-S7-Phe-Trp-His-NH2
B3: I-73 (peptide)
peptide: Ac-ADI[RdN(3)]D[Cha]AAFQ[S7]FWH-NH2
modifications: staple 4-11; not fully specified; printed as Ac-Ala-Asp-Ile-RdN-Asp-Cha-Ala-Ala-Phe-Gln-S7-Phe-Trp-His-NH2
notes: Stapled peptide; also called Ac-Ala-Asp-Ile-RdN-Asp-Cha-Ala-Ala-Phe-Gln-S7-Phe-Trp-His-NH2
B4: I-68 (peptide)
peptide: Ac-ADI[RdN″]D[Nle]AAFQ[S7]FWH-NH2
modifications: staple 4-11
notes: Stapled peptide; also called Ac-Ala-Asp-Ile-RdN-Asp-nLeu-Ala-Ala-Phe-Gln-S7-Phe-Trp-His-NH2
B5: I-50 (peptide)
peptide: Ac-FD[RdN(3)]ADDAAF[S7]AFWQ-NH2
modifications: staple 3-10; also: later-eluting HPLC isomer, E/Z not assigned
notes: Stapled peptide; also called Ac-Phe-Asp-RdN-Ala-Asp-Asp-Ala-Ala-Phe-S7-Ala-Phe-Trp-Gln-NH2
B6: I-51 (peptide)
peptide: Ac-FD[R8]ADDAAF[PyrS(3)]AFWQ-NH2
modifications: staple 3-10
notes: Stapled peptide; also called Ac-Phe-Asp-R8-Ala-Asp-Asp-Ala-Ala-Phe-PyrS-Ala-Phe-Trp-Gln-NH2
B7: I-46 (peptide)
peptide: FDAXDDAAFVXFWQ
modifications: not fully specified; N-terminal Ac; C-terminal NH2; RgN at 4 and S7 at 11, stapled
notes: Stapled peptide; also called Ac-Phe-Asp-Ala-RgN-Asp-Asp-Ala-Ala-Phe-Val-S7-Phe-Trp-Gln-NH2
B8: I-56 (peptide)
peptide: Ac-FDA[R8]D[d(αMeF)]AAFV[PyrS″]FWQ-NH2
modifications: staple 4-11
notes: Stapled peptide; also called Ac-Phe-Asp-Ala-R8-Asp-aMeDF-Ala-Ala-Phe-Val-PyrS-Phe-Trp-Gln-NH2
B9: I-62 (peptide)
peptide: Ac-FDA[R8]DDAAFV[PyrS″]YWQ-NH2
modifications: staple 4-11; not fully specified; printed as Ac-Phe-Asp-Ala-R8-Asp-Asp-Ala-Ala-Phe-Val-PyrS-Tyr-Trp-Gln-NH2
notes: Stapled peptide; also called Ac-Phe-Asp-Ala-R8-Asp-Asp-Ala-Ala-Phe-Val-PyrS-Tyr-Trp-Gln-NH2
B10: I-58 (peptide)
peptide: Ac-FDA[R8]DQAAFV[PyrS]FWQ-NH2
modifications: staple 4-11; not fully specified; printed as Ac-Phe-Asp-Ala-R8-Asp-Gln-Ala-Ala-Phe-Val-PyrS-Phe-Trp-Gln-NH2
notes: Stapled peptide; also called Ac-Phe-Asp-Ala-R8-Asp-Gln-Ala-Ala-Phe-Val-PyrS-Phe-Trp-Gln-NH2
B11: I-57 (peptide)
peptide: Ac-FDA[R8]D[d(αMeF)]AAFV[PyrS″]FWQ-NH2
modifications: staple 4-11; not fully specified
notes: as for B8
B12: I-63 (peptide)
peptide: Ac-FDA[R8]DDAAFV[PyrS]YWQ-NH2
modifications: staple 4-11; not fully specified; printed as Ac-Phe-Asp-Ala-R8-Asp-Asp-Ala-Ala-Phe-Val-PyrS-Tyr-Trp-Gln-NH2
notes: as for B9
B13: I-59 (peptide)
peptide: Ac-FDA[R8]DQAAFV[PyrS″]FWQ-NH2
modifications: staple 4-11; not fully specified; printed as Ac-Phe-Asp-Ala-R8-Asp-Gln-Ala-Ala-Phe-Val-PyrS-Phe-Trp-Gln-NH2
notes: as for B10
B14: I-72 (peptide)
peptide: Ac-ADI[RdN]D[Cha]AAFQ[S7]FWH-NH2
modifications: staple 4-11; not fully specified; printed as Ac-Ala-Asp-Ile-RdN-Asp-Cha-Ala-Ala-Phe-Gln-S7-Phe-Trp-His-NH2
notes: as for B3
B15: I-61 (peptide)
peptide: Ac-FDA[R8]DDAAFV[PyrS][Cha]WQ-NH2
modifications: staple 4-11
notes: Stapled peptide; also called Ac-Phe-Asp-Ala-R8-Asp-Asp-Ala-Ala-Phe-Val-PyrS-Cha-Trp-Gln-NH2
B16: I-60 (peptide)
peptide: Ac-FDA[R8]DDAAFV[PyrS][Cha]WQ-NH2
modifications: staple 4-11
notes: as for B15
B17: I-70 (peptide)
peptide: Ac-ADI[RdN″]D[hLeu]AAFQ[S7]FWH-NH2
modifications: staple 4-11
notes: as for B2
B18: I-69 (peptide)
peptide: Ac-ADI[RdN″]D[Nle]AAFQ[S7]FWH-NH2
modifications: staple 4-11
notes: as for B4
B19: I-48 (peptide)
peptide: FDXADDAAFXAFWQ
modifications: not fully specified; N-terminal Ac; C-terminal NH2; R8 at 3 and S5 at 10, stapled
notes: as for B1

Starred links: 1 amine or outer side, 2 acyl side, 3 side chain; linkers in the order of their positions; H or OH if unused. Positions of bridges follow the written chain, without caps; N, C: chain ends. Non-standard residues stand in square brackets, D forms with d. Primed or numbered codes have the meaning given here. RdN(3) = (R)-4-(((allyloxy)carbonyl)(methyl)amino)-2-amino-2-methylbutanoic acid, stapling residue, C=CCOC(=O)N(C)CC[C@@](C)(N[*:1])C(=O)[*:2]; RdN″ = (R)-4-(((allyloxy)carbonyl)(methyl)amino)-2-amino-2-methylbutanoic acid (stapling residue), C=CCOC(=O)N(C)CC[C@@](C)(N[*:1])C(=O)[*:2]; PyrS(3) = (S)-1-((allyloxy)carbonyl)-3-aminopyrrolidine-3-carboxylic acid, stapling residue, C=CCOC(=O)N1CC[C@@](N[*:1])(C(=O)[*:2])C1; PyrS″ = (S)-1-((allyloxy)carbonyl)-3-aminopyrrolidine-3-carboxylic acid (stapling residue), C=CCOC(=O)N1CC[C@@](N[*:1])(C(=O)[*:2])C1; RdN = (R)-4-(((allyloxy)carbonyl)(methyl)amino)-2-amino-2-methylbutanoic acid, C=CCOC(=O)N(C)CC[C@@](C)(N[*:1])C(=O)[*:2]; PyrS = (S)-1-((allyloxy)carbonyl)-3-aminopyrrolidine-3-carboxylic acid, C=CCOC(=O)N1CC[C@@](N[*:1])(C(=O)[*:2])C1; S7 = C[C@@](CCCCCC=[*:3])(N[*:1])C(=O)[*:2]; d(αMeF) = C[C@@](N)(Cc1ccccc1)C(=O)O; R8 = C=CCCCCCC[C@@](C)(N)C(=O)O; Cha = N[C@@H](CC1CCCCC1)C(=O)O; hLeu = CC(C)CC[C@H](N)C(=O)O; S5 = C=CCCC[C@](C)(N)C(=O)O; Nle = CCCC[C@H](N)C(=O)O A value given as a limit tells only on which side of the number the result lay.

The assay deals with T1, full-length beta-Catenin (Uniprot ID …). In words: AlphaScreen competition; full-length beta-catenin, biotin-TCF4(10-53) probe. The method, then:
Equal volume of the titrated peptide was added to the plate and incubated for 15 minutes at 20° C. Then 4 uL of donor and 4 uL acceptor beads at 10 ug/mL were added to the plate, for a 16 uL reaction pool and protected from light for 60 minutes at 20° C. prior to read. Reads were performed on a CLARIOstar plate reader (BMG Labtech) in duplicate, and data were fitted to a 1:1 binding model with hill slope using an in-house script. All provided concentrations are final concentrations.
As for B1, the EC50 was ≥ 10 µM.
For the molecule B2, the concentration giving a half-maximal response (EC50) is ≥ 10 µM.
With B3 the figure was ≥ 10 µM.
For the molecule B4, the 50% effective concentration (EC50) came out at 8.12 µM.
With B5 the figure was ≥ 10 µM; with B6, ≥ 10 µM; with B7, ≥ 10 µM.
With B8 the figure was ≥ 10 µM; with B9, ≥ 10 µM; with B10, ≥ 10 µM.
Turning to B11, the EC50 was ≥ 10 µM.
Under B12 stands ≥ 10 µM.
With B13 the figure was 9.88 µM; with B14, ≥ 10 µM; with B15, 8.9 µM.
Turning to B16, the concentration giving a half-maximal response (EC50) is ≥ 10 µM.
With B17 the figure was ≥ 10 µM; with B18, 9.1 µM.
With B19 the figure was ≥ 10 µM.
